Laboratory results reported in PMC11445502, “CDK phosphorylation of Sfr1 downregulates Rad51 function in late-meiotic homolog invasions” (The EMBO Journal, 2024).
One block for each molecule: values may come before it.

Columns and labels:
[1] = target: Rad51 (UniProt P36601); test: focus co-localisation on nuclear spreads; conditions: reference: EGFP-Sfr1 wild type; sites T73,T89,S109,S116,S147,T152,S165
[2] = target: Rad51 (UniProt P36601); test: GST pulldown from mixed bacterial lysates; conditions: reference: wild-type GST-Sfr1; sites T73,T89,S109,S116,S147,T152,S165
[3] = target: T1, GST-Sfr1-7A (S. pombe, UniProt Q9USV1 1-299, Thr73 to Ala | Thr89 to Ala | Ser109 to Ala | Ser116 to Ala | Ser147 to Ala | …); test: pull-down; GST-Sfr1 lysates (~2 mg) and Rad51 extract (75 ug) from E. coli mixed, Glutathione Sepharose 4B, 1 h at 4 °C; pulldown buffer 25 mM HEPES-KOH pH 7.5, 150 mM NaCl, 3.5 mM MgCl2, 0.5 mM DTT, 0.05 mg/ml BSA, 10% glycerol, 0.05% Igepal; western blot anti-GST and anti-Rad51; Rad51/GST ratio quantified; conditions: partners not purified
T1 construct: Sfr1, S. pombe, all seven putative CDK sites changed to alanine; pGEX-4T-1 should put GST at the N-terminus (surmised); Partly degraded as m1; also called pGEX-4T-1 sfr1-7A (CMC102); source: E. coli BL21 DE3, in cleared lysate
T1 sequence (looked up): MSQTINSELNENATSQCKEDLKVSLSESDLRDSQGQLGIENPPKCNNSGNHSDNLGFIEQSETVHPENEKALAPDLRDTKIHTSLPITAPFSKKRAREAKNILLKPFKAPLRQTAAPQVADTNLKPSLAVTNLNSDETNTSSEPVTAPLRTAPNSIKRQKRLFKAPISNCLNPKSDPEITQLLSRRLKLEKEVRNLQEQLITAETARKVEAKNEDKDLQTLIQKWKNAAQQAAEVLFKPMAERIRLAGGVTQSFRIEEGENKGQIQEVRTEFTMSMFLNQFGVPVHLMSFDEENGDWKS

[4] = target: T2, GST-Sfr1-WI (S. pombe, UniProt Q9USV1 1-299, Lys93 to Ala | Lys94 to Ala | Arg95 to Ala | Lys157 to Ala | Arg158 to Ala | …); test: as above; conditions: partners not purified
T2 construct: Sfr1, S. pombe, seven arginine and lysine residues of Site 1 and Site 2 changed to alanine; pGEX-4T-1 should put GST at the N-terminus (surmised); Partly degraded as m1; also called pGEX-4T-1 sfr1-WI (CMC98); source: E. coli BL21 DE3, in cleared lysate
T2 sequence (looked up): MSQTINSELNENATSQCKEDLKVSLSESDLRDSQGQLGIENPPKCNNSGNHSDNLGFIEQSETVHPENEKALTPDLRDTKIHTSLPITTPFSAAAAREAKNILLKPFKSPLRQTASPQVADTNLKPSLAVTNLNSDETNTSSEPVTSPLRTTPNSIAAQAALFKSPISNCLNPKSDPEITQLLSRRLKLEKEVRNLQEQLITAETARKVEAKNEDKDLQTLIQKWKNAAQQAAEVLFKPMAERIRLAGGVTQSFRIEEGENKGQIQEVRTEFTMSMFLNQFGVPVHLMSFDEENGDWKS

other: % of Rad51 foci co-localised with EGFP-Sfr1 foci [1]: same; reference 78
Molecule: Sfr1 (from UniProt Q9USV1) EGFP-Sfr1-7A

percent of reference [2]: 81%
Molecule: Sfr1 (from UniProt Q9USV1) GST-Sfr1-7A

other: % of Rad51 foci co-localised with EGFP-Sfr1 foci [1]: weaker; reference 78
Molecule: Sfr1 (from UniProt Q9USV1) EGFP-Sfr1-7D

efficiency of binding compared to control GST-Sfr1 (Rad51/GST ratio) [3]: 81%
efficiency of binding compared to control GST-Sfr1 (Rad51/GST ratio) [4]: 17%
B1: Rad51 (untagged) (natural protein, S. pombe, UniProt P36601 1-365, looked up)
chain: MADTEVEMQVSAADTNNNENGQAQSNYEYDVNVQDEEDEAAAGPMPLQMLEGNGITASDIKKIHEAGYYTVESIAYTPKRQLLLIKGISEAKADKLLGEASKLVPMGFTTATEYHIRRSELITITTGSKQLDTLLQGGVETGSITELFGEFRTGKSQICHTLAVTCQLPIDMGGGEGKCLYIDTEGTFRPVRLLAVADRYGLNGEEVLDNVAYARAYNADHQLELLQQAANMMSESRFSLLVVDSCTALYRTDFSGRGELSARQMHLARFMRTLQRLADEFGIAVVITNQVVAQVDGISFNPDPKKPIGGNILAHSSTTRLSLRKGRGEQRICKIYDSPCLPESEAIFAINSDGVGDPKEIIAPV
notes: Rad51 recombinase, S. pombe, untagged, in pET-11d; Plasmid ordered from GeneUniversal or GeneCust; also called pET-11d rad51 (CMC99); recombinase Rad51; source: E. coli BL21 DE3, in cleared lysate
